Each block holds one molecule with its values, some of them ahead of it.
What was measured:
[1] = target: human HER3 (Homo sapiens, UniProt P21860); assay: Global affinity study by Bio-Layer Interferometry (Octet QK384); format: binding; conditions: HER3 unbound, 'closed' conformation
Method: The anti-HER3 antibody clones in IgG1 format were analysed for binding affinity to human HER3.
Bio-Layer Interferometry (BLI) experiments were performed using the Octet QK384 system (ForteBio). anti-Human IgG Capture (AHC) Octet sensor tips (Pall ForteBio, USA) were used to anti-HER3 antibodies (25 nM). All measurements were performed at 25° C. with agitation at 1000 rpm. […] Sensograms were referenced for buffer effects and then fitted using the Octet QK384 user software (Pall ForteBio, USA).
(§1) Binding of anti-HER3 antibodies to human HER3 was evaluated by BLI. Briefly, anti-Human IgG Capture (AHC) sensors (ForteBio) were loaded with anti-HER3 IgG antibodies (25 nM). Kinetic measurements were performed in absence or presence of NRG1. NRG1 was used at 1:1 molar ratio with HER3 wherein the complex was allowed to form at RT for 2 h. His-tagged human HER3 or HER3-NRG1 complexes were loaded to antibody coated AHC sensors at different concentrations for 120 s, followed by a 120 s dissociation time. All measurements were performed at 25° C. with agitation at 1000 rpm. Sensorgrams were referenced for buffer effects and then analyzed using the Octet QK384-software (ForteBio). Kinetic responses were globally fitted using a one-site binding model to obtain values for association (Kon), dissociation (Koff) rate constants and the equilibrium dissociation constant (KD).

[2] = target: human HER3: human NRG1 complex (Homo sapiens, UniProt P21860); assay: BLI binding to HER3 in ligand-bound 'open' conformation; conditions: NRG1 at 1:1 molar ratio with HER3
Method: In further experiments, anti-HER3 antibodies were analysed in order to determine the affinity of binding to human HER3 in the context of a human HER3: human NRG1 complex (that is, HER3 provided in the ligand-bound, ‘open’ conformation), as compared to the affinity of binding to human HER3 in the absence of NRG1 complex (that is, HER3 provided in the unbound, ‘closed’ conformation).
as §1

[3] = test system: intracellular signalling pathways in FaDu cells; assay: Phosphoprotein Antibody Array, FaDu cells; format: cell-based; conditions: 50 μg/ml antibody 4 hrs, NRG 100 ng/ml 15 min
Method: In further experiments the inventors investigated the intracellular signalling pathways affected by anti-HER3 antibody-mediated inhibition of HER3.
FaDu cells were seeded in wells of a 6 well plate with 10% serum at 37° C., 5% CO2. After 16 hrs, cells were starved by culture overnight in 1% FBS cell culture medium. On the following day cells were treated with 50 μg/ml anti-HER3 antibody 10D1 for 4 hrs, followed by 15 min stimulation with NRG (100 ng/ml). Proteins were then extracted, quantified using standard Bradford protein assay, and incubated overnight with pre-blocked Phosphoprotein Antibody Array membrane (Ray Biotech) at 4° C. The membrane was then washed with washing buffer and incubated with detection antibody cocktail for 2 hrs at room temperature, followed by washing and incubation with HRP-Conjugated anti-IgG. After 2 hrs the membrane was washed and probed using the kit detection buffer. Images were captured with Syngene Gbox imaging system, the intensity of each dot/phosphoprotein was measured and percent inhibition was calculated by comparison with intensity measured for cells treated in the same way in the absence of the antibody.

[4] = test system: HER3 extracellular domain; assay: Epitope mapping with overlapping 15-mer peptides; format: binding, human
Method: The epitope for 10D1 was mapped using overlapping 15-mer amino acids to cover the entire HER3 extracellular domain. Each unique 15-mer was elongated by a GS linker at C and N-terminals, conjugated to a unique well in 384 well plates, and the plates were incubated with 0.1, 1, 10 and 100 ug/ml of 10D1 antibody for 16 hrs at 4° C. The plates were washed and then incubated for 1 hr at 20° C. with POD-conjugated goat anti-human IgG. Finally POD substrate solution was added to the wells for 20 min. before binding was assessed by measurement of chemiluminescence at 425 nm using a LI-COR Odyssey Imaging System, and quantification and analysis was performed using the PepSlide Analyzer software package. The experiment was performed in duplicate.

[5] = target: His-tagged human HER3 (Homo sapiens, UniProt P21860); assay: BLI competition between anti-HER3 antibodies for binding to HER3
Method: Bio-Layer Interferometry (BLI) experiments were performed using the Octet QK384 system (ForteBio). anti-Penta-HIS (HIS1K) coated biosensor tips (ForteBio, USA) were used to capture His-tagged human HER3 (75 nM; 300 s). […] The variable region of LJM-716 antibody was cloned in the PDZ vector having human IgG1 and IgKappa Fc backbone.
BLI experiments were performed as described in Example 3.5 with one alteration: 400 nM of competing antibodies were used. The variable regions of M-05-74 and M-08-11 antibodies were cloned in the PDZ vector having human IgG1 and IgKappa Fc backbone.

[6] = target: T1, human EGFR (Homo sapiens, UniProt P00533); assay: ELISA for antibody specificity: human EGFR (HER1); format: binding
T1 construct: purchased Sino Biological Inc., China
Method: ELISAs were used to determine the binding specificity of the antibodies. The antibodies were analysed for binding to human HER3 polypeptide, as well as respective mouse, rat and monkey homologues of HER3 (Sino Biological Inc., China). The antibodies were also analysed for their ability to bind to human EGFR and human HER2 (Sino Biological Inc., China).
ELISAs were carried out according to standard protocols. Briefly, 96-well plates (Nunc, Denmark) were coated with 0.1 μg/ml of target polypeptide in phosphate-buffered saline (PBS) for 16 h at 4° C. After blocking for 1 h with 1% BSA in Tris buffer saline (TBS) at room temperature, the anti-HER3 antibody was serially diluted with the highest concentration being 10 μg/ml, and added to the plate. Post 1 h incubation at room temperature, plates were washed three times with TBS containing 0.05% Tween 20 (TBS-T) and were then incubated with a HRP-conjugated anti-His antibody (Life Technologies, Inc., USA) for 1 h at room temperature. […] The reaction was stopped with 2M H2SO4, and OD was measured at 450 nm.
The antibodies were analysed for their ability to bind to human HER3 polypeptide as well as human HER1 (EGFR) and human HER2 (Sino Biological Inc., China). […]
ELISAs were carried out according to standard protocols. […] The reaction was stopped with 2M […], and OD was measured at 450 nm.

B1: 10D1: parental mouse anti-HER3 antibody clone, VH SEQ ID NO:24, VL SEQ ID NO:74, human IgG1 chimeric (antibody, V domains shown)
VH: DVQLQESGPDLVKPSQSLSLTCTVTGYSITSGYSWHWIRQFPGNKLEWMGSIHYSGGTNYNPSLKSRISITRDTSKNQFFLQLNSVTTEDTATYFCARMTTAPRYPFDYWGQGTTLTVSS
VL: DIVMTQSQKFMSTSVGDRVSVTCKASQIVGSNVAWYQQKPGQSPKPLIYSASYRYSGVPDRFTASGSGTDFTLTITNVQSEDLAEYFCQQYSSHPLTFGAGTKLELK
modifications: human IgG1 constant regions; 10D1 heavy chain variable region; 10D1 light chain variable region
- PI3K/AKT/mTOR and MAPK signalling [3]: inhibit PI3K/AKT/mTOR and MAPK signalling
- location of epitope relative to β-hairpin of HER3 dimerisation arm [4]: at a dimerisation interface N-terminal to the β-hairpin
- site of HER3 bound ([4]; positions of human HER3 SEQ ID NO:1, region SEQ ID NO:229): positions 218 to 235
- epitope of HER3 relative to MM-121 and/or LJM-716 [5]: distinct and topologically distant epitope

B2: 4-35-B2: anti-HER3 antibody clone, VH SEQ ID NO:127, VL SEQ ID NO:135 (antibody, V domains shown)
VH: EIQLQQSGPELVKPGASVKVSCKASGYSFTDYNMYWVKQSHGKSLEWIGHINPYNGGTTYNQKFKGRATLTVDKSSSTAFMHLNSLTSEDSAVYFCVSLRWGAMDYWGQGTSVTVSS
VL: QIVLTQSPALMSASPGEKVTMTCSASSSVSYMYWYQQKPRSSPKPWIYLTSNLASGVPARFSGSGSGTSYSLTISSMEAEDAATYYCQQWNSNPYTFGGGTKLEIK
modifications: 4-35-B2 heavy chain variable region; 4-35-B2 light chain variable region
- binding to human EGFR [6]: found to bind

Continued, values first:

- affinity of binding to human HER3 in the absence of NRG1 [1]: subpicomolar affinity
- affinity of binding to human HER3 in the presence of NRG1 [2]: dramatically reduced
Molecule: LJM716: anti-HER3 antibody clone described in Garner et al., Cancer Res (2013); epitope across domains II and IV [reference compound]

- affinity of binding to human HER3 in the absence of NRG1 [1]: sub-picomolar affinity
- affinity of binding to human HER3 in the presence of NRG1 [2]: sub-picomolar affinity
B3: 10D1F: clone with VH SEQ ID NO:36 and VL SEQ ID NO:83; b369 means 10D1F.A, b1087 the mIgG2a format (antibody, V domains shown)
VH: QVQLQESGPGLVKPSQTLSLTCTVSGYSITSGYSWHWIRQHPGKGLEWIGSIRYSGGTDYNPSLKSLVTISADTSKNQFSLKLSSVTAADTAVYYCARMTTAPWYPFDYWGQGTTVTVSS
VL: DIQMTQSPSSVSASVGDRVTITCKASQIVGSNVAWYQQKPGKAPEPLIYSASYLYSGVPSRFSGSGSGTDFTLTISSLQPEDFATYYCQQYSSHPLTFGQGTKLEIK
modifications: 10D1_c89 heavy chain variable region; 10D1_c89 light chain variable region
notes: b369 means 10D1F.A, b1087 the mIgG2a format
